According to patent publication US20070022497A1, “Trans-2-enoyl-coa reductase gene of euglena gracilis” (BASF Plant Science GmbH, priority 2004, published 2007):

T1: trans-2-enoyl-CoA reductase (TER) (Euglena gracilis, UniProt Q5EU90)
T1 construct: One kilogram of Euglena gracilis strain Z cells grown under aerobic conditions for one week was used as starting material; endogenous in cells; host or cells: Euglena gracilis strain Z, aerobically grown; enzyme purified by chromatography (crude extract to Superdex 200)
T1 sequence (Q5EU90 137-539 limits assumed): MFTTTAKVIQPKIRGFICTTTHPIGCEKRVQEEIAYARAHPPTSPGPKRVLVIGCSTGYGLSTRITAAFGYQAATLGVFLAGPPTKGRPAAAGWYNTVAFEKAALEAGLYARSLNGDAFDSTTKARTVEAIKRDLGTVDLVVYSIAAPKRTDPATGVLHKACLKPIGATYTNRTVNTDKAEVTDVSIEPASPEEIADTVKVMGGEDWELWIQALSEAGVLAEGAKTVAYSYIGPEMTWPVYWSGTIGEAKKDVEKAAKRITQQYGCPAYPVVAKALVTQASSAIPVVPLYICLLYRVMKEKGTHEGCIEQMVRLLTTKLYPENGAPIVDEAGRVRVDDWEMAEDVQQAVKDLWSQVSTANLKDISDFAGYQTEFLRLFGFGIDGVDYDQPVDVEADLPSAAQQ


How the values were obtained:
[1] = biological target: T1, trans-2-enoyl-CoA reductase (TER); assay: trans-2-enoyl-CoA reductase enzyme activity assay (decrease of absorbance at 340 nm with Crotonyl-CoA and NADH); format: biochemical; details: His-Tag protein from ter2-pET28 in E. coli BL21 (DE3), purified via Ni-NTA agarose
Protocol: Enzyme activity was measured as described by Inui, H. et al. (1984) Eur. J. Biochem. 142: 121-126 with the following modifications. The assay mixture contained 100 mM potassiumphosphate buffer pH 6,2; 0,75 mM Crotonyl-CoA (Sigma); 0,4 mM NADH and 2 μM FAD and enzyme. The assay mixture without substrate was preincubated for 10 min at 30° C. The reaction was also performed at 30° C. and started with the addition of substrate. The activity was determined by the decrease of absorbance at 340 nm. The final assay volume was 1 ml (Ultrospec 2000 Spectrophotometer, Amersham Biosciences) or 200 μl (GENios microplate reader, Tecan Instruments, Maennedorf, Switzerland).

Arabidopsis thaliana = assay: Total seed lipid content of transgenic Arabidopsis plants over-expressing the TER gene (gas chromatography of fatty acids); format: in vivo; details: for Total seed lipids, % fatty acids: mean of two extractions, empty vector controls 28.3 ± 0.4
Protocol: Using floral dip essentially as described by Clough and Bent, 1998, plants are transformed with Agrobacterium tumefaciens C58C1 harboring the plasmid pSUN300-USP-TER-OCS respectively. Entire plants (inflorescence and rosette) are submerged for 20-30 sec in the infiltration media consisting of 5% sucrose, 0.02% Silwet L-77 (Osi Specialties, Danbury, Conn.) and re-suspended transformed A. tumefasciens cells. Plants are then transferred to a growth chamber with a photoperiod of 16 h of light at 21° C. and 8 h of dark at 18° C. (70% humidity) or a similarly air-conditioned greenhouse. The T1 seeds are collected from mature plants. Subsequently transformed plants were identified on selection media by growing T1 seeds on MS-agar plates supplemented with kanamycin (50 μg/ml).
Plant lipids were extracted from plant material as described by Cahoon et al. (1999, Proc. Natl. Acad. Sci. USA 96, 22:12935-12940) and Browse et al. (1986, Anal, Bio-chemistry 442:141-145). Qualitative and quantitative lipid or fatty acid analysis is described in Christie, William W., Advances in Lipid Methodology. Ayr/Scotland :Oily Press.—(Oily Press Lipid Library; Christie, William W., Gas Chromatography and Lipids. A Practical Guide—Ayr, Scotland :Oily Press, 1989 Repr. 1992.—IX,307).
The total lipid content of dry T2 generation seeds from Arabidopsis thaliana plants over-expressing SEQ ID NO: 1, SEQ ID NO: 4 or SEQ ID NO: 6 will be increased compared to the empty vector Arabidopsis thaliana control plants not expressing SEQ ID NO: 1, SEQ ID NO: 4 or SEQ ID NO: 6. As an example the T2 seed lipid content determined by conventional gas chromatography as mg fatty acids per mg dry seeds of the plants overexpressing SEQ ID NO: 4 is given in table 4. Each value is the mean of two separate extractions of the seed of the given line. The control value is the mean of the seeds of 4 empty vector control plants grown simultaneously, each extracted and measured also in duplicate.

Row | Molecule | Specific activity of purified ter2-protein [1] | increase in seed storage lipids compared to the controls (Arabidopsis thaliana; independent T2 lines, seed specific promoter, relative to empty pSun300-USP vector controls (FIG. 9)) | Total seed lipids, % fatty acids (Arabidopsis thaliana; transgenic line 7, dry T2 seeds) | Total seed lipids, % fatty acids (Arabidopsis thaliana; transgenic line 10, dry T2 seeds) | Total seed lipids, % fatty acids (Arabidopsis thaliana; transgenic line 22, dry T2 seeds)
1 | ter2-protein: His-tagged truncated TER protein (from aa 136, 45 kDa) expressed in E. coli (protein, listed as Euglena gracilis, His tag, His-tagged truncated TER protein (from aa 136, 45 kDa) expressed in E. coli) MFTTTAKVIQPKIRGFICTTTHPIGCEKRVQEEIAYARAHPPTSPGPKRVLVIGCSTGYGLSTRITAAFGYQAATLGVFLAGPPTKGRPAAAGWYNTVAFEKAALEAGLYARSLNGDAFDSTTKARTVEAIKRDLGTVDLVVYSIAAPKRTDPATGVLHKACLKPIGATYTNRTVNTDKAEVTDVSIEPASPEEIADTVKVMGGEDWELWIQALSEAGVLAEGAKTVAYSYIGPEMTWPVYWSGTIGEAKKDVEKAAKRITQQYGCPAYPVVAKALVTQASSAIPVVPLYICLLYRVMKEKGTHEGCIEQMVRLLTTKLYPENGAPIVDEAGRVRVDDWEMAEDVQQAVKDLWSQVSTANLKDISDFAGYQTEFLRLFGFGIDGVDYDQPVDVEADLPSAAQQ | 1510 nmol/mg/min |  |  |  | 
2 | SEQ ID NO: 4: shortened Ter gene ORF; protein SEQ ID NO: 5 with 28 amino acid N-terminal stretch predicted to give mitochondrial targeting (nucleic acid, listed as Euglena gracilis, CDS (1)..(1329)) DNA: ATGGGCCGCCGCGGGGCCGCAGTGGGCGGCGCCGCTCGTGGCCGCGGCCTCCTCCGCACTGGCGCTGTGGTGGTGAACATCGCCACCGCGGTCACCCACCTGGCCCCCCCGATGGCGATGTTCACCACCACAGCGAAGGTCATCCAGCCCAAGATTCGTGGCTTCATCTGCACGACCACCCACCCGATCGGCTGTGAGAAGCGGGTCCAGGAGGAGATCGCGTACGCCCGTGCCCACCCGCCCACCAGCCCTGGCCCGAAGAGGGTGCTGGTCATCGGCTGCAGTACCGGCTACGGGCTCTCCACCCGCATCACCGCTGCCTTCGGCTACCAGGCCGCCACGCTGGGCGTGTTCCTGGCGGGCCCCCCGACGAAGGGCCGCCCCGCCGCGGCGGGCTGGTACAACACCGTGGCGTTCGAGAAGGCCGCCCTGGAGGCCGGGCTGTACGCCCGGAGCCTTAATGGCGACGCCTTCGACTCCACAACGAAGGCGCGGACGGTCGAGGCGATCAAGCGGGACCTCGGCACGGTGGACCTCGTGGTGTACAGCATCGCCGCCCCGAAGCGGACGGACCCTGCCACCGGCGTCCTCCACAAGGCCTGCCTGAAGCCCATCGGCGCCACGTACACCAACCGCACTGTGAACACCGACAAGGCGGAGGTGACCGACGTCAGCATTGAGCCGGCCTCCCCCGAAGAGATCGCGGACACGGTGAAGGTGATGGGCGGGGAGGACTGGGAGCTCTGGATCCAGGCGCTGTCGGAGGCCGGCGTGCTGGCGGAGGGGGCCAAGACGGTGGCGTACTCCTACATCGGCCCCGAGATGACGTGGCCTGTCTACTGGTCCGGCACCATCGGGGAGGCCAAGAAGGACGTGGAGAAGGCTGCCAAGCGCATCACGCAGCAGTACGGCTGCCCGGCGTACCCGGTGGTGGCCAAGGCCTTGGTCACCCAGGCCAGCTCCGCCATCCCGGTGGTGCCGCTCTACATCTGCCTGCTGTACCGCGTTATGAAGGAGAAGGGCACCCACGAGGGCTGCATCGAGCAGATGGTGCGGCTGCTCACCACGAAGCTGTACCCCGAGAACGGGGCCCCCATCGTCGATGAGGCCGGACGTGTGCGGGTGGATGACTGGGAGATGGCGGAGGATGTGCAGCAGGCTGTTAAGGACCTCTGGAGCCAGGTGAGCACTGCCAACCTCAAGGACATCTCCGACTTCGCTGGGTATCAAACTGAGTTCCTGCGGCTGTTCGGGTTCGGCATTGACGGCGTGGACTACGACCAGCCCGTGGACGTGGAGGCGGACCTCCCCAGTGCTGCCCAGCAGTAG |  | at least 10% | 35.5 ± 3.2% | 32.4 ± 1.1% | 31.4 ± 0.9%
